Test system: HEK293T
Experiment: median enrichment of reporter reads in eGFP-reduced (low/intermediate) vs eGFP-high sorted cells (eGFP-extension fusion abundance) (ratio); higher = stronger loss of eGFP-fusion protein abundance (more destabilising extension)
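Also: lentiviral eGFP-IRES-mCherry reporter pool sorted by FACS 96 h post-transduction, gated on mCherry-high cells, Illumina read counts normalized per million, median across four biological replicates.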

Sequence of RBP1 (chain, as listed by the source): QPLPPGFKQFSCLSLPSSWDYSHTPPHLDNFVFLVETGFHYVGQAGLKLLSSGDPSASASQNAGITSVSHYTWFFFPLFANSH

With QSCSIHIGLMD [ZCCHC10] the median enrichment was 0.408.
QSFTSKFYLLCLPLLSRRSCLLPGSLTCSLS [LRRC1] showed a median enrichment of 18.
With QSIQQSLIRHAKI [SDHAF3] the median enrichment was 4.37.
“QSKQGRNVQVNNKSPHTLLTPWRQLLFRSFICLLQESFLPLT [SIRPD]” was tested, and the median enrichment was 4.67.
Substance QSMF [TMEM196] has a median enrichment of 0.507.
Work on QSPSAARKCWSWSKIGFFKIFLVIREYI [PSD3] yielded a median enrichment of 7.26.
Work on “QSPSVLPLSPLSPWPVVVPQPLPPSTSSVSPSPRLINLLIDCDSK [ERGIC3]” yielded a median enrichment of 9.24.
With QSQEPSSLI [CNDP1] the median enrichment was 0.195.
“QSQPQLMPSQSQPPVTPSQSQPRVTPSQSQPHVTPYRSKSGKQKQSVPIPKTVSRKGTLKK [ADAM29]” was tested, and the median enrichment was 0.14.
QSSAQRRGSMC [FAM49A] was tested, and the median enrichment was 0.176.
With QSSF [PCNX4] the median enrichment was 0.571.
QSSLSR [SCAF8] was tested, and the median enrichment was 1.11.
Work on QSSQSSARP [SNX32] yielded a median enrichment of 0.324.
QSSYPLEEDCFQII [KDSR] showed a median enrichment of 0.764.
With QSTF [ST8SIA4] the median enrichment was 0.477.
In the case of “QSTGRKCFWTEVVAVEGVASSCRQTIILEILVEVPSPIRHSNMSTNALKWN [EPHA3]”, the median enrichment is reported as 14.9.
“QSTLTYFQKYNFRYHANFMTSKGCCYNVLTER [TDGF1]” gave a median enrichment of 6.46.
In the case of QSTTALSS [GALNT4], the median enrichment is reported as 0.487.
QSVISFICCINV [LRP1B] gave a median enrichment of 11.7.
Substance QSWWPQPLASDTLYLKNNCAL [CALB1] has a median enrichment of 5.97.
QSYHSGC [USP32] was tested, and the median enrichment was 0.623.
In the case of QTA [FMR1], the median enrichment is reported as 0.337.
With QTAKKEKLN [PTMA] the median enrichment was 0.399.
QTFCSYRLKYLLPIRFFCDMCLPAVN [CCDC59] gave a median enrichment of 6.05.
With “QTGFLSSLKRLLCLRKSICCVSLASGSRTDLQLPNWILLPRSCSEVSFYHSAL [HLA-DPB1]” the median enrichment was 7.45.
QTGHPTHLHAKILPASSLRVPW [UBL4B] gave a median enrichment of 4.81.
In the case of QTGQDPSTCTC [FCN1], the median enrichment is reported as 0.258.
Substance QTGRLDF [RPL24] has a median enrichment of 0.466.
Substance QTGWPGPNP [EMILIN3] has a median enrichment of 0.352.
QTHGTDSLGN [DPF3] showed a median enrichment of 0.444.
Work on QTLCALCVRPVPAS [USP10] yielded a median enrichment of 7.74.
With QTLGNSISCIFDQIVTSFCI [RAB18] the median enrichment was 5.83.
With QTLPFLFEFFRGKG [PCBD1] the median enrichment was 2.9.
QTSLHFILF [FABP1] was tested, and the median enrichment was 24.1.
Work on QTTFPKENIRGFHC [CPVL] yielded a median enrichment of 0.323.
Work on “QTVEWLKLLSRRIYTSDLRRETLTPQWLHLL [HIST1H2BJ]” yielded a median enrichment of 10.5.
Work on QTVKEGVFVWTR [DSC1] yielded a median enrichment of 2.42.
“QVFGKQQRASPLPGGLPCRFWASFPCLSLFRCAFHL [MAP2K1]” showed a median enrichment of 13.2.
For QVISQSIYVLSNM [PSMA1], the median enrichment was 7.19.
In the case of QVLSPNNFFLSEVKGLKISWK [ENOSF1], the median enrichment is reported as 10.9.
QVNANSIVEPGV [PRKCB] showed a median enrichment of 0.284.
With QVPFPLLNIKLNSI [NSMAF] the median enrichment was 2.85.
“QVRLVQEHKLPPSPSPPPPGPGLKQPEDSPRGWLSPAAGSAFTWGGGAGLTLNPPPRQVGEGSHHSKCL [SLC2A4RG]” showed a median enrichment of 2.26.
In the case of “QVTGNLSHLPFSSGTTLHKCVPRGSPFLSSSTENAARSSYPSSRGPAAMLYAPEGTLVPRKERKKRDGLWLHFLGP [VAMP8]”, the median enrichment is reported as 7.27.
QVVHIYGIWYEILICVYNT [ZNF230] gave a median enrichment of 47.2.
In the case of QWLSGSMC [LYPD6], the median enrichment is reported as 0.958.
“QWPHPHWAQARRGPAHAHTTGQGCGAGAIPAPFPGPRGLGSLPSHPGLVPPGAPTVEIRRGWNGGRGGAGGPHPSAALGLGPH [GNB2]” was tested, and the median enrichment was 7.88.
QWPSDDS [COL15A1] gave a median enrichment of 0.307.
In the case of “QWRGEGRLGALGGWEMLASKRLTGREAGTCPQHKRQVYPGSL [BTBD18]”, the median enrichment is reported as 8.86.
Work on QWSWLRVGEGTWA [RTP2] yielded a median enrichment of 2.67.
“QYLTGHHRILWIFFPSFWFWFRANSCFIGTVYEAFETKNNEE [GALC]” showed a median enrichment of 6.16.
QYNF [PPP1R42] gave a median enrichment of 0.505.
QYT [ZMYM5] was tested, and the median enrichment was 0.736.
For QYTF [PNISR], the median enrichment was 1.03.
Work on “RAALLSSQAAPVPSPSTLEWSSSACFPSHRPATTPTMCRKHCLTIPHPPDNSQGWSPGHFQLLLSPCIVSLLCFFSLPPLLFL [RAB15]” yielded a median enrichment of 7.07.
Work on RAAPPSGQKLK [ALG1L] yielded a median enrichment of 0.251.
RAAQKETTKPLTVVTLDKETPVA [CAPRIN2] gave a median enrichment of 45.5.
With “RACGAAGAGEASRGRVLRQELDSPTLLSSRQGPGSHILLTLERLELTPLDGKCISEKGKAAWGSPI [SLC1A7]” the median enrichment was 9.89.
Substance “RACQEVTTSLLPAAWARTALRFEGNMDPFGPAGTGHIPHPRATMGVGNFLVCFLIYL [PLEKHH3]” has a median enrichment of 8.55.
RAETSALLTLRDTTRLHGEV [CORO2A] gave a median enrichment of 6.49.
Substance “RAGPAPCPRSPLLSRPHPPPARPTRGATPPFESLAVGWTLPFPEAA [C1QL4]” has a median enrichment of 13.1.
“RAGVCWHRQPPLWALGGPLKGSPTRGPDESFLSGVGSQRGSPPAAWGRAWPGRVIQRVCQPLTGSPSVAATRSTELLQPRGQL [FAM53B]” gave a median enrichment of 6.39.
For RAHELRL [TNFAIP8], the median enrichment was 0.408.
“RAKPDGQHRHRHTPQGPTLLSFTVPWHIGERIYPSPGSPGHSVLSKTRMWYQLWKRKVSCQQYLLPSRQPSQVRHLLRSHREP [SPSB4]” showed a median enrichment of 7.24.
With “RALLAPAFHALPIPPPPPPPPATEGRPEPPSLPSPLGGRGGHWKGGTPPPQQLRRGFWN [TOMM40]” the median enrichment was 0.777.
Substance RALLERLLCHPFAPERGSSQLS [DNPEP] has a median enrichment of 9.53.
“RALVPWQRDEKLQALSPAWAGSGARGCDSSRRVETLGWTGGGQRPAGGAPGMCPDMVNL [VAV1]” showed a median enrichment of 1.76.
RAMPSLCAVKLSMHYILLAPLQVNAKSQLG [CDC14A] gave a median enrichment of 7.49.
RAPAVIIQHDAA [PLXNA1] showed a median enrichment of 5.99.
Substance RAPPLTEAAPPTAPNKNVKTNPRT [NDUFA3] has a median enrichment of 0.588.
Substance “RAPTLQPQTLCTPRCDAGRGPPPGRTDCRSWEPRHAQASAEGAAGGSARLDPWHLIKKFSLMSMVVGQPSSLSQQAHAASVTS [ZFPM1]” has a median enrichment of 2.21.
Substance “RAPVGKGGGLRGRGWMPRAPKPPFPFVSKGVRSELRKRASECVSLEGLGALWCYHLETCLMPPCLPMEDRLQELGPCGNLACF [MTA2]” has a median enrichment of 5.52.
Work on “RAPVWMLLPRLQTTGSFPCPNPRRSFLEGSWALGTCVSCAYHRPRPPWISWIGVGE [TXNRD1]” yielded a median enrichment of 10.1.
Substance RAPWWERL [HTT] has a median enrichment of 1.54.
RAQLLRAQTPA [TNK1] gave a median enrichment of 1.82.
RARCPSPS [PTH2] was tested, and the median enrichment was 2.74.
Substance RAS [ABCF2] has a median enrichment of 0.408.
“RASPAHCQGRRGPDQGPRGLRAPPLSPPQCLRGPEPPPVPAAPLPQGPAMPHPGLKFCKVLRGPEHVSATRGSGQHCVLRLVS [SLC29A4]” showed a median enrichment of 8.55.
RASSFS [KLHL10] gave a median enrichment of 0.821.
Substance RASVGG [MDFI] has a median enrichment of 9.54.
“RAWLPACTPPLPPHESPPAGYRGRHAPGASPALGTTCLPAPPGPGPPAAPHFRRGLEQGEAGLWGAVREIYWGPQILL [ECEL1]” gave a median enrichment of 4.03.
Work on “RAWVLTPGRATLSDLKMRILGTGCLSPQQNQNESLKAQDSAFATLPLSWYRRWM [ZNF410]” yielded a median enrichment of 8.88.
RBP1 showed a median enrichment of 6.79.
Work on “RCAGSFLPSVKGQRCADLIFQLTTCFKRKIAHEKCLLAFQSIFEITG [FAM104A]” yielded a median enrichment of 5.07.
Substance RCCCHGGLGQRGERSVLEA [OBSCN] has a median enrichment of 11.1.
“RCDQVALGRDPRVFMRHLKLIKELRLELIWCSP [KCNC2]” gave a median enrichment of 10.9.
Substance RCFRRLFFSSRSCHLIILH [COMMD10] has a median enrichment of 7.76.
“RCKPPYESTVADRRRGGCCSCRSINMCCMSFLLFF [LMO7]” was tested, and the median enrichment was 22.4.
In the case of RCLELCCCQHDLFGA [TPH2], the median enrichment is reported as 5.32.
For “RCLPRAVDARAPVHTHTSTLTSPQCCASSTRFYSSQNCILNAQETFKLFMKRCVYREEEGANAVRIMFRL [UBE2QL1]”, the median enrichment was 11.9.
Substance RCPCHLPSVHPESSQ [PPFIBP2] has a median enrichment of 0.445.
In the case of RCPGDVTDSWQSHGPRLPKSVCWQLFP [S100P], the median enrichment is reported as 8.26.
RCRVFSSFFLLQEFVVT [MMP16] was tested, and the median enrichment was 3.48.
RCTKDLLF [GNA13] showed a median enrichment of 1.38.
For RCVHSISEETTHRSFFSLF [GIPC2], the median enrichment was 8.59.
In the case of “RDALAMAQEKPARKNQTDFHTKEEASIFFFLFFIGVVTKPFRLLLFKI [QRICH1]”, the median enrichment is reported as 33.
RDASTGPSLFCPQP [HSPB8] showed a median enrichment of 0.453.
Substance RDCACI [CPSF3] has a median enrichment of 0.439.
Substance RDI [ACSM2A] has a median enrichment of 0.259.
RDKVRVFSSYILSQATLQDVAKAYIFP [IPCEF1] was tested, and the median enrichment was 3.59.
Work on RDRALRCQGENPSSNPGYLETEKLEF [ITLN2] yielded a median enrichment of 0.166.
With “RDSRTKSLCMKLPTMNVMMLYTKVTRQLSLSGFRSVFGTSLSSTYSAHGNYKLYISFPIVFQNVFSTEHA [RUFY2]” the median enrichment was 8.53.
“RDSSACPPWGPCCRPGGQSRWERHSQGQGKEGTHTHTHTHTHTHTYILLSLPKPIRQVNGQCLLGPWTHFLLGEAAS [GLP1R]” was tested, and the median enrichment was 3.35.
For RDSSP [CD1C], the median enrichment was 0.413.
RDVQDL [ZMPSTE24] showed a median enrichment of 0.177.
REA [NPSR1] was tested, and the median enrichment was 4.09.
Work on READTFFQQ [ADAM12] yielded a median enrichment of 0.392.
REAGLPVLLPQGPLWLFTNKDPFVK [BCL7C] showed a median enrichment of 6.88.
In the case of REALHLNLFMS [ERI2], the median enrichment is reported as 2.13.
REAMPWSWD [SLN] gave a median enrichment of 0.623.
In the case of REAWPR [ELOVL1], the median enrichment is reported as 0.427.
REDAFLFMGFLPWSLSSKCHSGQSFVSVS [NOD1] gave a median enrichment of 33.9.
REDHGLSVPQSQLPDG [TBC1D10C] gave a median enrichment of 1.36.
For “REEWGRLRSCGPRPRSLRGCLGDHLDLEAESAILPD [DHRS2]”, the median enrichment was 2.36.
With REFYRDAEKKERSEAIYAYGSRKR [CHCHD7] the median enrichment was 7.02.
In the case of “REGSNGSRELDTVHPNTSPPPGHLEESSARIPRQSSPPAPAVPSCAVLLPHSAPGPCPFIPLKHPLKPLHHFHSQQKVIEHLL [HAUS5]”, the median enrichment is reported as 7.
With REKGNAQERNTVSPISDLDSTGYMEEI [OR8B8] the median enrichment was 0.597.
Substance RELHYPFPSQTTN [MDC1] has a median enrichment of 0.473.
With RELTCETSA [FOXP2] the median enrichment was 0.325.
Substance RENQHP [CRYBG3] has a median enrichment of 0.514.
With “REPKGDWALWQLLSHTVDHSSPSCSLSSSECGW [TRIM66]” the median enrichment was 12.8.
REQ [UNC93A] gave a median enrichment of 5.69.
